Experimental data reported in patent US7244706.

Experiments:
[1] = target: human lactoferrin (LF), intact, purified from human milk/colostrum (UniProt P02788)
[2] = tested on: pepstatin A

Chain of bovine spleen cathepsin D (Sigma) (chain, as listed by the source): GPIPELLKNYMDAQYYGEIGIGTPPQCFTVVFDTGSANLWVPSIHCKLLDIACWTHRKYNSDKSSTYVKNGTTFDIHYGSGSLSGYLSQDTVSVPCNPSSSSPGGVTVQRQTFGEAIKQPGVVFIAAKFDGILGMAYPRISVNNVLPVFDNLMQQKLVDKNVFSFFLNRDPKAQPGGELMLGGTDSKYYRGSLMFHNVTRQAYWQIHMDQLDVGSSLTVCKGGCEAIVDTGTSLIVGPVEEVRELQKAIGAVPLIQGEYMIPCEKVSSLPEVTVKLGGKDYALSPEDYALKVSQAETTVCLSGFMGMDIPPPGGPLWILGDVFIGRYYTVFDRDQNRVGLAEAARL
Chain of human lactoferrin (LF), intact, purified from human milk/colostrum (P02788 20-710): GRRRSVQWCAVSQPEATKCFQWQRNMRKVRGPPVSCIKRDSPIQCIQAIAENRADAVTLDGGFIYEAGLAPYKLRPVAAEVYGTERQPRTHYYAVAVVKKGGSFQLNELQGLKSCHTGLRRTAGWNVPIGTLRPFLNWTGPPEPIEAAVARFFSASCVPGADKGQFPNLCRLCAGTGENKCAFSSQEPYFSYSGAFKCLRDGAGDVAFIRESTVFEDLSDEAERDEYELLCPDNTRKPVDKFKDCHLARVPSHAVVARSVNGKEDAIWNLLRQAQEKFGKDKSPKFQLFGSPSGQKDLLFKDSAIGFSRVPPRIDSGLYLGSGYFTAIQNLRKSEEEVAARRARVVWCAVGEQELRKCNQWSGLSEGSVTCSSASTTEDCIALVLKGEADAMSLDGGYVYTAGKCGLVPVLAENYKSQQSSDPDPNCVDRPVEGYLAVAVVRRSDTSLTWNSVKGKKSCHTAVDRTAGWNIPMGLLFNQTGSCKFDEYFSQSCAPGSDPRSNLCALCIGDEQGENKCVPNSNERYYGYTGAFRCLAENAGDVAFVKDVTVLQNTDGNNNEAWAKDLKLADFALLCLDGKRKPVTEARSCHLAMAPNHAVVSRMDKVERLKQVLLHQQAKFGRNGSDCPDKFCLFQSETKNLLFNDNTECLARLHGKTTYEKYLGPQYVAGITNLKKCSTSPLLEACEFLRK

Substance: bovine spleen cathepsin D (Sigma)
- proteolytic release of the N-terminal 6 kDa polypeptide, seen by immunoblot [1]: Exposure of either iron-saturated or iron-free LF to even small amounts of cathepsin D ( 1/200th, w:w) for a period as brief as five minutes yielded the N-terminal 6 kDa polypeptide
- loss of proteolytic release of the 6 kDa fragment from LF, seen by immunoblot [2]: incubations of LF performed in the absence of cathepsin D or in the presence of pepstatin A, an inhibitor of cathepsin D, failed to identify a 6 kDa fragment
